The test system of this series is N=C(N)NCCC[C@H](NC(=O)[C@H](Cc1ccccc1)NC(=O)[C@@H]1CCCN1C(=O)c1ccccc1)C(=O)Nc1ccc([N+](=O)[O-])cc1. Briefly: Km and vmax determination with substrate (Lineweaver-Burk), plasma kallikrein. It is filed as biochemical. The following applies: other: plasma kallikrein; substrate concentration varied, enzyme constant; measured at 405 nm. The method, then: As is evident from equation (2) constants Km and k3 determine the activity of the enzyme substrate for a given enzyme. For determining these constants the following procedure is followed:
The enzyme and the substrate are mixed in a buffer solution, and the reaction is followed spectrophotometrically for 2 to 30 minutes. The concentration of substrate [S] is varied, whereas the enzyme concentration [E] is kept constant. If the extinction (OD) (= optical density) is plotted in a co-ordinate system as a function of time, a curve is obtained the tangent of which (difference in extinction per minute, Δ OD/minute, from which the quantity in μmoles of pNA/min (v) can be calculated) at time zero corresponds to the ideal course of the hydrolysis. By means of this tangent the initial rate of the hydrolysis can be determined.
If 1/v is plotted against 1/[S], a Lineweaver-Burk diagram (cf. "Kurzes Lehrbuch der Biochemie" by P. KARSON, Georg Thieme-Verlag, Stuttgart, 1967, p. 70) is obtained from which vmax and Km can be determined graphically.
Km and k3 = vmax /E were determined with N^α-Bz-Pro-Phe-Arg-pNA^. HCl (i.e. the substrate prepared according to Example 1) for plasma kallikrein, trypsin, plasmin and thrombin.

Chain of plasma kallikrein (Homo sapiens) (chain, as listed by the source): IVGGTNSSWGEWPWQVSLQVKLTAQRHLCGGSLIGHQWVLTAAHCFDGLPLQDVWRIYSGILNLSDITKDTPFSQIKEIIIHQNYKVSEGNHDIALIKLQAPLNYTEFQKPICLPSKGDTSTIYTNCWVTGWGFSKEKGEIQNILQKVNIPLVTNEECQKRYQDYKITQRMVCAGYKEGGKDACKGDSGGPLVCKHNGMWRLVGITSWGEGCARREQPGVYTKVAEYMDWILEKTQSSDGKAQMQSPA

With plasma kallikrein (Homo sapiens), the Km (usually the substrate concentration at which the rate is half of its maximum) was 282 µM.
